Results on 33 molecules are retold here after patent US20240209086A1 (PETMEDIX, published 2024).

Substitutions are numbered along the chain they refer to.

The test concerns the target T1, canine CD20 on cells (HEK293, MDCK II, CLBL-1 or native B cells) (canine, UniProt Q3C2E2 1-297).
T1 construct: also called dCD20; cCD20
T1 chain: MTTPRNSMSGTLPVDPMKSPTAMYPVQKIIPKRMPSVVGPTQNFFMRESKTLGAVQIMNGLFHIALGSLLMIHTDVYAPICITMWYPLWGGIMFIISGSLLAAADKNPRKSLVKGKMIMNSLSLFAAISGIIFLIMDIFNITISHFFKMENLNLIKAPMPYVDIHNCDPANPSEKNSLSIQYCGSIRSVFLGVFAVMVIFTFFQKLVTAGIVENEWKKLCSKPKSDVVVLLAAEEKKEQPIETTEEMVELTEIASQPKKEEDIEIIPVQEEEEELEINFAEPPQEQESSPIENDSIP
As to the kind of experiment: flow cytometry, canine CD20 HEK293 cells, 10 µg/ml, FITC anti-canine IgG. How it is done: A CD20 binding screen was performed on candidate proteins produced from the canine CD20 immunisation as described in Examples 2 and 3. CHO cells supernatants containing candidate antibodies were diluted to 10 μg/ml in FACS buffer (PBS containing 3% FBS) and screened for their ability to bind canine CD20 expressed on cell surface. In brief, 1-2×10⁵ canine CD20-expressing HEK cells were incubated with candidate mAbs for one hour at 4° C., at a fixed concentration of 10 μg/ml followed by incubation with 5 μg/ml of FITC-conjugated anti-canine IgG secondary antibody (Bethyl Laboratories) for 1 hour at 4° C. Cells incubated with anti-canine IgG FITC secondary antibody and without primary anti-canine CD20 antibody, or with isotype control primary antibody, were used as negative controls. The data were acquired on either a Beckman Coulter CytoFLEX or a BD Accuri C6 Plus flow cytometer and analysed using FlowJo software.
(In general: A flow cytometer gives signals particle by particle.)

B1: PMX229 (monospecific anti-canine CD20, canine IgG-B, lambda C5) (antibody, V domains shown)
VH: EVQLVESGGDLVKPGGSLRLSCVASGITFSRYHMSWVRQAPGKGLQWVAFINTGRSSTNYADAVAGRFTISRDNAKNTLYLQMNGLTVEDTAVYYCSTLDYWGQGTLVTVSS
VL: SYVLTQLPSKSVTLKQPAHITCGGDNIGSKSVHWYQQKLGQAPILIIYYDNNRPTGIPERFSGANSGNTATLTISGALAEDEADYYCHVWDSSVNVFGGGTHLTVLG
For B1, the binding result is recorded as “binds”.

B2: PMX235 (monospecific anti-canine CD20, canine IgG-B, lambda C5) (antibody, V domains shown)
VH: EVQLVESGGDLVKPGGSLRLSCVASGITFSRYYMNWVRQAPGKGLQWVAYINTGESSTIYSDAVKGRFTISRDNAKNTLYLQMNSLRAEDTAVYYCTTLEYWGQGTLVTVSS
VL: B1 VL with S11N, I44A, N52R, H88Q, V94D
Turning to B2, the binding result was “binds”.

B3: PMX232 (monospecific anti-canine CD20, canine IgG-B, lambda C5) (antibody, V domains shown)
VH: EMQLVESGGDLVKPGESLRLSCVASGISFNNYHMSWVRQAPGKGLQWVAYIDSVGTSTTYADAVKGRFTISRDNAKNTLYLQMNSLRAEDTAVYYCTTFDSWGQGTLVTVSS
VL: B1 VL with S11N, I44V, N51S, N52R, H88Q, V94A
Turning to B3, the binding result is on record as “binds”.

B4: PMX230 (monospecific anti-canine CD20, canine IgG-B, lambda C5) (antibody, V domains shown)
VH: EVHLVESGGDLVKPGGSLRLSCVASGITFNRYYMNWVRQTPGKGLQWVAYIDSGGSPTTYADAVKGRFTISRDNAKNTLYLQMNSLRAEDTAVYYCTSFDYWGQGTLVTVSS
VL: B1 VL with S11N, N51T, N52S, H88Q, V94A
Consider B4, for which the binding result is “binds”.

B5: PMX254 (monospecific anti-canine CD20, canine IgG-B, lambda C5) (antibody, V domains shown)
VH: EVQLVESGGDLVKPGGSLRLSCVASGFTFSRYHMSWIRQAPGKGLQWVAFIDSDGSGTRYADAVKGRFTFSRDNAKNTLYLQMSSLRAEDTAVYYCTSLEFWGQGTLVTVSS
VL: B1 VL with S11N, I44V, N51S, N52S, H88Q, V94A
In the case of B5, the binding result is reported as “binds”.

B6: PMX241 (monospecific anti-canine CD20, canine IgG-B, lambda C5) (antibody, V domains shown)
VH: EVQLVESGGDLVKPGGSLRLSCVASGITFSGYHMSWVRQAPGKGLQWVAFINSGRRSTSYADAVKGRFTISRDNAKNTLYLQMNSLRAEDTAIYYCTTLEFWGQGTLVTVSS
VL: B1 VL with S11N, I44V, N51S, N52R, S75N, H88Q, V89M
In the case of B6, the binding result is listed as “binds”.

B7: PMX238 (monospecific anti-canine CD20, canine IgG-B, lambda C5) (antibody, V domains shown)
VH: B1 VH with I27F, G85S, T87R, V88A
VL: B1 VL with S11N, I44V, N51S, N52S, H88Q, V94A
On to B7, for which the binding result is listed as “binds”.

B8: PMX236 (antibody, V domains shown)
VH: B4 VH with H3Q, I27L, N30S, T40A, T59N, T97S
VL: B1 VL with L4V, K10N, S11T, I44V, N51S, N52R, H88Q, V94A
notes: also called PMX236 (monospecific anti-canine CD20, canine IgG-B, lambda C5)
Regarding B8, the binding result is reported as “binds”.

B9: PMX257 (monospecific anti-canine CD20, canine IgG-B, lambda C5) (antibody, V domains shown)
VH: EVQLVESGGDLVKPGGSLRLSCVASGFTFSSYHMSWVRQAPGKGLQWVAYINSGGSSTSYADAVKGRFTISRDNAYSTLFLQMNNLRAEDTAVYYCTTLDSWGQGTLVTVSS
VL: B1 VL with S11N, I44V, N51S, N52S, H88Q, V94A
Turning to B9, the binding result is listed as “binds”.

B10: PMX237 (monospecific anti-canine CD20, canine IgG-B, lambda C5) (antibody, V domains shown)
VH: B4 VH with H3Q, I27L, N30S, T40A, D52N, P57S, T59D, A88V, T97A
VL: B1 VL with S11K, P17S, I44V, Y49H, N51S, N52S, H88Q, V94A
With B10, the binding result is listed as “binds”.

B11: PMX245 (monospecific anti-canine CD20, canine IgG-B, lambda C5) (antibody, V domains shown)
VH: B6 VH with I27L, G31R, F50Y, R55G, R56S, S59D, A63G, I93V, T98S, F101D
VL: B1 VL with S11N, I44V, N51S, N52S, H88Q
For B11, the binding result was “binds”.

B12: PMX260 (monospecific anti-canine CD20, canine IgG-B, lambda C5) (antibody, V domains shown)
VH: B4 VH with H3Q, I27F, N30R, Y33H, N35S, T40A, P57G, T59S, T97S, F99L
VL: B1 VL with S11N, I44V, N51S, N52R, H88Q, V94G
As for B12, the binding result is “binds”.

B13: PMX253 (monospecific anti-canine CD20, canine IgG-B, lambda C5) (antibody, V domains shown)
VH: B4 VH with H3Q, L4M, I27F, N30S, T40A, D52N, S56G, P57S, T59S, T97S
VL: B1 VL with S11N, I44V, N51S, N52S, H88Q, V94A
On to B13, for which the binding result is “binds”.

B14: PMX263 (monospecific anti-canine CD20, canine IgG-B, lambda C5) (antibody, V domains shown)
VH: B4 VH with H3Q, I27F, N30S, T40A, D52N, P57S, T59S, E89D
VL: B1 VL with S11N, I44V, N51S, N52S, H88Q, V94A
Regarding B14, the binding result is “binds”.

B15: PMX243 (monospecific anti-canine CD20, canine IgG-B, lambda C5) (antibody, V domains shown)
VH: EVQLVESGGDLVKPGGSLRLSCVASGFTFSRYHMSWVRQAPGKGLQWVAYINSGGSNTDYTDAVKGRFTISRDNAKNTLYLQMNSLRAEDTAVYYCSSLDYWGQGTLVTVSS
VL: B1 VL with S11N, I44V, N51R, N52R, H88Q, S92R, V94G
With B15, the binding result was “binds”.

B16: PMX246 (monospecific anti-canine CD20, canine IgG-B, lambda C5) (antibody, V domains shown)
VH: B15 VH with V2M, N57P, D59N, T61A, S97T, S98T, L99Y, Y101Q
VL: B1 VL with I44V, N51S, N52S, H88Q, S92T, V94A
Regarding B16, the binding result is on record as “binds”.

B17: PMX242 (monospecific anti-canine CD20, canine IgG-B, lambda C5) (antibody, V domains shown)
VH: B15 VH with V2I, S53T, D59N, T61A, S97T, S98T, Y101S
VL: B1 VL with S9F, S11N, I44V, N51S, N52R, H88Q
In the case of B17, the binding result is on record as “binds”.

B18: PMX267 (monospecific anti-canine CD20, canine IgG-B, lambda C5) (antibody, V domains shown)
VH: B15 VH with V2M, N52D, G54D, S56I, D59N, T61A, V93L, S97T, S98T, L99F
VL: B1 VL with S11N, I44V, N51S, N52S, H88Q, V94G
As to B18, the binding result is on record as “binds”.

B19: PMX256 (monospecific anti-canine CD20, canine IgG-B, lambda C5) (antibody, V domains shown)
VH: B9 VH with Y76K, S77N, F80Y, L81F, N85S, L99F
VL: B1 VL with S11N, I44V, N51S, N52S, H88Q, V94A
Regarding B19, the binding result was “binds”.

B20: PMX261 (monospecific anti-canine CD20, canine IgG-B, lambda C5) (antibody, V domains shown)
VH: B4 VH with H3Q, N30S, T40A, N77K, T78A
VL: B1 VL with S11N, I44V, N51S, N52S, Y86F, H88Q, V94A
For the molecule B20, the binding result is recorded as “binds”.

B21: PMX248 (monospecific anti-canine CD20, canine IgG-B, lambda C5) (antibody, V domains shown)
VH: B15 VH with N57T, D59S, T61A, V93I, Y95F, S97T
VL: B1 VL with S11N, N51S, N52R, H88Q, V94A
Regarding B21, the binding result is recorded as “binds”.

B22: PMX262 (monospecific anti-canine CD20, canine IgG-B, lambda C5) (antibody, V domains shown)
VH: B4 VH with H3Q, N30S, T40A, D52N
VL: B1 VL with S11N, N51T, N52S, H88Q, V94A
As for B22, the binding result is “binds”.

B23: PMX234 (monospecific anti-canine CD20, canine IgG-B, lambda C5) (antibody, V domains shown)
VH: ELQLVESGGDLVKPGGSLRLSCVASGFTFSRYYLNWVRQAPGKGLQWVAFITSGGSSTNYADAVKGRFTISRDNAKNTLYLQMNSLRAEDTAVYYCTSFDSWGQGTLVTVSS
VL: B1 VL with S11N, I44V, N51S, N52S, H88Q, V94A
As to B23, the binding result was “binds”.

B24: PMX259 (monospecific anti-canine CD20, canine IgG-B, lambda C5) (antibody, V domains shown)
VH: B15 VH with N57S, D59S, T61A, S97A, L99F
VL: B1 VL with S11N, I44V, N51S, H88Q, V94G
Take B24: the binding result was “binds”.

B25: PMX252 (monospecific anti-canine CD20, canine IgG-B, lambda C5) (antibody, V domains shown)
VH: B15 VH with N57S, D59S, T61A, S97A
VL: B1 VL with S11N, I44V, N51S, N52S, H88Q, S92I, V94A
In the case of B25, the binding result was “binds”.

B26: PMX266 (monospecific anti-canine CD20, canine IgG-B, lambda C5) (antibody, V domains shown)
VH: B23 VH with Y33H, L34M, N35S, F50Y, T52N, N59S, S98T
VL: B1 VL with S11N, I44V, N51S, N52S, H88Q, S92I, V94A
Regarding B26, the binding result is “binds”.

B27: PMX239 (monospecific anti-canine CD20, canine IgG-B, lambda C5) (antibody, V domains shown)
VH: B23 VH with L2V, L34M, N59S, A61G, S101Y
VL: B1 VL with S11N, I44V, D50A, N51S, N52S, H88Q, V94A
Regarding B27, the binding result is recorded as “binds”.

B28: PMX258 (monospecific anti-canine CD20, canine IgG-B, lambda C5) (antibody, V domains shown)
VH: B2 VH with I27L, E55G, I59S, S61A, T97A, T98S, L99F, E100D
VL: B1 VL with S11N, I44V, N51S, N52S, H88Q, V94A
Regarding B28, the binding result is given as “binds”.

B29: PMX240 (monospecific anti-canine CD20, canine IgG-B, lambda C5) (antibody, V domains shown)
VH: B15 VH with F27L, Y50F, G55R, N57D, D59T, T61A, S97T, S98T, L99F
VL: B1 VL with S11N, I44A, N51S, N52S, H88Q, V94A
Turning to B29, the binding result is recorded as “binds”.

B30: PMX249 (monospecific anti-canine CD20, canine IgG-B, lambda C5) (antibody, V domains shown)
VH: B15 VH with N57S, D59S, T61A, S97A, L99F
VL: B1 VL with S1P, S11N, I44V, N51S, N52R, H88Q, V94A
Turning to B30, the binding result is “binds”.

B31: PMX247 (monospecific anti-canine CD20, canine IgG-B, lambda C5) (antibody, V domains shown)
VH: B15 VH with N57P, T58S, D59S, T61A, S97T, L99F, Y101C
VL: B1 VL with S11N, I44V, N51S, N52R, H88Q, V94A
For B31, the binding result was “binds”.

B32: PMX231 (monospecific anti-canine CD20, canine IgG-B, lambda C5) (antibody, V domains shown)
VH: B15 VH with F27L, V37I, N52S, N57S, D59N, T61A, D62G, A63S, I70V, S97T
VL: B1 VL with S11N, I44V, N51S, N52R, H88Q, V94D
With B32, the binding result is “binds”.

B33: PMX264 (monospecific anti-canine CD20, canine IgG-B, lambda C5) (antibody, V domains shown)
VH: B15 VH with Y50F, S53T, G55R, S56M, N57S, D59N, T61A, S97T
VL: B1 VL with S11N, I44V, N51S, N52S, H88Q, V94A
As to B33, the binding result is recorded as “binds”.
